{"source": "paper PMC8043444", "about": "(bioRxiv, 2021)", "key": {"[1]": {"biological_target": "T1, SARS-CoV-2 RBD WT for SPR binding assays (SARS-CoV-2, UniProt P0DTC2)", "assay": "SPR"}, "[2]": {"biological_target": "T1, SARS-CoV-2 RBD WT for SPR binding assays", "assay": "cell-based or functional assay"}, "[3]": {"biological_target": "SARS-CoV-2 RBD WT for crystallization (SARS-CoV-2, UniProt P0DTC2, deglycosylated by overnight incubation with EndoH glycosidase)", "assay": "crystal structure"}}, "data": [{"binder": "S2X35 IgG1 (LS) (antibody, V domains shown) VH: QVQLVQSGAEVKKPGASVKVSCKASGYTFTNYGISWVRQAPGQGLEWMGWISAYKGNTNYAQKLQGRVTMTTDTSTSTAYMELRSLRSDDTAVYYCARPDYQVLGYDFWIGYYGMDVWGQGTTVIVSS VL: QSVLTQPPSVSGAPGQRVTISCTGSSSNIGAGYDVHWYQQLPGTAPKLLIYGNTNRPSGVPDRFSGSKSGTSASLAITGLQAEDEADYYCQSYDSSLSGSEVVFGGGTKLTVL", "values": [{"measurement": "Kd", "setting": "[1]", "value": 0.06, "unit": "nM"}, {"measurement": "neutralisation of authentic SARS-CoV-2-Nluc on Vero E6 cells (IF/luc), IC90", "setting": "[2]", "value": 592}]}, {"binder": "S2X259 Fab (Fab, V domains shown) VH: QVQLVQSGAEVKKPGSSVKVSCKASGGIFNTYTISWVRQAPGQGLEWMGRIILMSGMANYAQKIQGRVTITADKSTSTAYMELTSLRSDDTAVYYCARGFNGNYYGWGDDDAFDIWGQGTLVTVYS VL: QTVLTQPPSVSGAPGQRVTISCTGSNSNIGAGYDVHWYQQLPGTAPKLLICGNSNRPSGVPDRFSGSKSGTSASLAITGLQAEDEADYYCQSYDSSLSGPNWVFGGGTKLTVL", "values": [{"measurement": "binding result", "setting": "[3]", "value": "binds"}]}, {"binder": "S304 IgG1 (LS) (antibody, V domains shown) VH: EVQLVESGGGLVQPGGSLRLSCAASGFTFSSYDMHWVRQTTGKGLEWVSTIGTAGDTYYPDSVKGRFTISREDAKNSLYLQMNSLRAGDTAVYYCARGDSSGYYYYFDYWGQGTLLTVSS VL: DIEMTQSPSSLSAAVGDRVTITCRASQSIGSYLNWYQQKPGKAPKLLIYAASSLQSGVPSRFSGSGSGTDFTLTISSLQPEDFAIYYCQQSYVSPTYTFGPGTKVDIK", "values": [{"measurement": "Kd", "setting": "[1]", "value": 0.4, "unit": "nM"}]}, {"binder": "S2H97 IgG1 (LS) (antibody, V domains shown) VH: QVRLVQSGAEVKKSGESLKISCKGSGYSFTSYWIGWVRQMPGKGLEWMGIIYPGDSDTRYSPSFQGQVTISADKSISTVYLQWSSLKASDTAMYYCARQWSHYTYDYYYWGQGTLVTISS VL: QSVLTQPASVSGSPGQSITISCTGISSDVGGYNSVSWYQQHPGKAPKLMIYDVTNRPSGVSNRFSGSKSGNTASLTISGLQAEDEADYYCSSYTSSSTPPYVFGTGTKVSVL", "values": [{"measurement": "Kd", "setting": "[1]", "value": 0.04, "unit": "nM"}, {"measurement": "neutralisation of authentic SARS-CoV-2-Nluc on Vero E6 cells (IF/luc), IC90", "setting": "[2]", "value": 3290}]}, {"binder": "S2H97 Fab (Fab, V domains shown) VH: QVRLVQSGAEVKKSGESLKISCKGSGYSFTSYWIGWVRQMPGKGLEWMGIIYPGDSDTRYSPSFQGQVTISADKSISTVYLQWSSLKASDTAMYYCARQWSHYTYDYYYWGQGTLVTISS VL: QSVLTQPASVSGSPGQSITISCTGISSDVGGYNSVSWYQQHPGKAPKLMIYDVTNRPSGVSNRFSGSKSGNTASLTISGLQAEDEADYYCSSYTSSSTPPYVFGTGTKVSVL", "values": [{"measurement": "Kd", "setting": "[1]", "value": 0.03, "unit": "nM"}]}, {"binder": "S2D106 IgG1 (LS) (antibody, V domains shown) VH: EVQLVQSGAEVKKPGSSVKVSCKASGGPFSSSAISWVRQAPGQGLEWMGGIIPMVGTANYAQKFQGRVTITADESTSTAYMELSSLRSEDTAVYYCARDSRYCSGGSCYSVWFDPWGQGTLVTVSS VL: not shown", "values": [{"measurement": "Kd", "setting": "[1]", "value": 0.04, "unit": "nM"}, {"measurement": "neutralisation of authentic SARS-CoV-2-Nluc on Vero E6 cells (IF/luc), IC90", "setting": "[2]", "value": 23.6}]}, {"binder": "S2D106 Fab (Fab, V domains shown) VH: EVQLVQSGAEVKKPGSSVKVSCKASGGPFSSSAISWVRQAPGQGLEWMGGIIPMVGTANYAQKFQGRVTITADESTSTAYMELSSLRSEDTAVYYCARDSRYCSGGSCYSVWFDPWGQGTLVTVSS VL: not shown", "values": [{"measurement": "Kd", "setting": "[1]", "value": 0.05, "unit": "nM"}]}, {"binder": "S2E12 IgG1 (LS) (antibody, V domains shown) VH: not shown VL: DIVLTQTPGTLSLSPGERATLSCRASQSVSSSYLAWYQQKPGQAPRLLIYGASSRATGIPDRFSGSGSGTDFTLTISRLEPEDFAVYYCQQYVGLTGWTFGQGTKVEIK", "values": [{"measurement": "Kd", "setting": "[1]", "value": 0.7, "unit": "nM"}, {"measurement": "neutralisation of authentic SARS-CoV-2-Nluc on Vero E6 cells (IF/luc), IC90", "setting": "[2]", "value": 14}]}]}
